Targets include CD4 WT (mouse) (UniProt P06332); CD4 R426A (mouse) (UniProt P06332); CD4 Dbl (mouse) (UniProt P06332); CD4 R449A (mouse) (UniProt P06332); CD4 K452A (mouse) (UniProt P06332).
Assay in all cases: co-IP

Lck, sequence (P06240 whole entry): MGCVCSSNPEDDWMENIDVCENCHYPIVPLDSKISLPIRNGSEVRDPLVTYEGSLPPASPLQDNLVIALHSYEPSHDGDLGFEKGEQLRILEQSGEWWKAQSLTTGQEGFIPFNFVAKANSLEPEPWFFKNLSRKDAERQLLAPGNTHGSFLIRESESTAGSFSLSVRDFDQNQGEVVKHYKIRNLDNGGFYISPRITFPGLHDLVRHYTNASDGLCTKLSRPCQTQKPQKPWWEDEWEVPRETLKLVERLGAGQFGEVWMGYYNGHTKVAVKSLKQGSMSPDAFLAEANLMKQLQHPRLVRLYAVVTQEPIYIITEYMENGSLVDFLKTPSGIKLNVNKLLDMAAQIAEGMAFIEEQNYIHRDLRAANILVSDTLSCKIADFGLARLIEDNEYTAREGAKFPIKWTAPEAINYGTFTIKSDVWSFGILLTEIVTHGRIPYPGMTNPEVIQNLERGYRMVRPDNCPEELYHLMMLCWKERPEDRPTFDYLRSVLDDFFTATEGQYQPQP

For the substance “Lck (from UniProt P06240 1-509) (enzyme)”, the total AUC of the raw Lck signal co-IP'd with CD4 with CD4 WT (mouse) came to 2630; with CD4 R426A (mouse), 2920; with CD4 Dbl (mouse), 2160; in the experiment with CD4 R449A (mouse), 2640; in the experiment with CD4 K452A (mouse), 2380.

(Values after paper doi:10.1101/2021.04.29.441928.)
